The source of these data is publication PMC11051896.

The data set concerns T1, CcpA (Lactococcus lactis N8), ORF:ea67f8fe.
T1 sequence: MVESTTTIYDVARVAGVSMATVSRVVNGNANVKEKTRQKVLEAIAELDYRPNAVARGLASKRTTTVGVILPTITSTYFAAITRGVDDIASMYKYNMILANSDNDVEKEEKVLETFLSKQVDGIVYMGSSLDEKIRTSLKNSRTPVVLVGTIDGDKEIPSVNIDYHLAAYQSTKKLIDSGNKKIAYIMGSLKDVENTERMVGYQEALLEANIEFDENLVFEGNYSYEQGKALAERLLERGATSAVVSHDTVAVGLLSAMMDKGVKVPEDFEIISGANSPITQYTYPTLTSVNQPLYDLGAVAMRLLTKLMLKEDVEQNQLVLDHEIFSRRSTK
Nature of the data set: MST. Particulars: MST: Cy5-DNA 375 nM stock (10 uL per tube), CcpA from 15 uM in 16 two-fold dilutions; assay buffer, salt, pH and temperature not stated (protein purified in …).

As to “AGCCAGTGGCGATAAGTACGATAAAATATTTAAAAGTCTATATATACCAAGGAAGAAAACGCTTTAAATTTTTGTAAATTATTAGAAATAATGATAG (double strand) [N8-1-cre]”, the Kd turned out to be 0.044 µM.

Regarding “AGCCAGTGGCGATAAGTACGATAAAATATTTAAAAGTCTATATATACCAAGGAAGAAAACTCTTTAAATTTTTGTAAATTATTAGAAATAATGATAG (double strand) [N8-2-cre]”, the binding result was “no binding”.

Usually Kd stands for the free concentration of one partner at which half of the binding sites on the other are occupied at equilibrium, for simple one-to-one binding.
